Measurements taken from publication PMC7852545, “Cell fate determined by the activation balance between PKR and SPHK1” (Cell Death and Differentiation, 2020).
Values belong to the molecule of their own block, whether it stands above or below them.

Columns and labels:
[1] = molecular target: SPHK1 (sphingosine kinase 1) (UniProt Q9NYA1); experiment: Co-IP of Flag-PKR with endogenous SPHK1; settings: reference: wild-type PKR-Flag; sites T451
[2] = molecular target: SPHK1 (sphingosine kinase 1) (UniProt Q9NYA1); experiment: GST-SPHK1 pull-down of Flag-purified PKR; settings: reference: wild-type PKR-Flag; sites T451
GST-PKR = molecular target: T1, GST-PKR (human, UniProt P19525 1-551); experiment: pull-down; Flag-tagged SPHK1 (wild type, 225A, 225D) immunoprecipitated with anti-Flag from HEK293T lysates, purified and co-incubated with GST-PKR; settings: both partners purified
T1 construct: double-stranded RNA-dependent protein kinase R (PKR), human, full-length cDNA; also called PKR (in vitro); source: prokaryotic expression (pGEX-4T1/pET28a vectors)

PKR^451A-Flag = molecular target: T2, PKR^451A-Flag (human, UniProt P19525 1-551, T451A); experiment: pull-down; Flag-tagged PKR (wild type, 451A, 451D) purified from HEK293T and co-incubated with GST-SPHK1; settings: both partners purified
T2 construct: double-stranded RNA-dependent protein kinase R (PKR), human, full-length cDNA, point mutant at Thr451; also called T451A; source: HEK293T, transfected, in lysate; also purified from the lysate for the GST pulldown; not shown: Flag, C-terminal, kept

PKR-Flag (wild type) = molecular target: T3, PKR-Flag (wild type) (human, UniProt P19525 1-551); experiment: as above; settings: both partners purified
T3 construct: double-stranded RNA-dependent protein kinase R (PKR), human, full-length cDNA; also called wild-type PKR; Flag-PKR; source: HEK293T, transfected, in lysate; also purified from the lysate for the GST pulldown; not shown: Flag, C-terminal, kept

PKR^451D-Flag = molecular target: T4, PKR^451D-Flag (human, UniProt P19525 1-551, T451D); experiment: as above; settings: both partners purified
T4 construct: double-stranded RNA-dependent protein kinase R (PKR), human, full-length cDNA, point mutant at Thr451; also called T451D; source: HEK293T, transfected, in lysate; also purified from the lysate for the GST pulldown; not shown: Flag, C-terminal, kept
T4 sequence (P19525 whole entry T451D): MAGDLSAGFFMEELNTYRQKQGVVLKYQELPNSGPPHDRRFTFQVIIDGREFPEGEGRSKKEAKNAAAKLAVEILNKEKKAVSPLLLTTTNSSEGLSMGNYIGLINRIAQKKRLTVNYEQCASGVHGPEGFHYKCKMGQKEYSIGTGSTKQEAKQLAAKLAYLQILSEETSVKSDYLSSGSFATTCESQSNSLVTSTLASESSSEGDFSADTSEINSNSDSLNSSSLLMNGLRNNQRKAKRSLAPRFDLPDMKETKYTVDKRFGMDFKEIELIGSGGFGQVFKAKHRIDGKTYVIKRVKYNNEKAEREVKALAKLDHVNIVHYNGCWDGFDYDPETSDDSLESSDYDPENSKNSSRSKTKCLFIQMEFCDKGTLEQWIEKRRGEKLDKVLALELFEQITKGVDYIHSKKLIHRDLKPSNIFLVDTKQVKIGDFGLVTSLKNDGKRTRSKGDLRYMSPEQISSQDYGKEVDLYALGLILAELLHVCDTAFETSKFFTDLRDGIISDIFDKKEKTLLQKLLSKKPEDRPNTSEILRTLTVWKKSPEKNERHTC

T2 sequence (P19525 whole entry T451A): as the sequence (P19525 whole entry T451D) above, with D451A counted along it
T3 sequence (P19525 whole entry): as the sequence (P19525 whole entry T451D) above, with D451T counted along it
T1 sequence (P19525 whole entry): as the sequence (P19525 whole entry T451D) above, with D451T counted along it

- binding against the reference [1]: stronger
- binding against the reference [2]: stronger
Molecule: PKR (dsRNA-dependent protein kinase R) (from UniProt P19525) T451A

- binding result (GST-PKR): binds
B1: SPHK1^225D-Flag (phosphomimetic mutant of SPHK1) (enzyme, human, UniProt Q9NYA1 1-384, looked up)
chain: MDPAGGPRGVLPRPCRVLVLLNPRGGKGKALQLFRSHVQPLLAEAEISFTLMLTERRNHARELVRSEELGRWDALVVMSGDGLMHEVVNGLMERPDWETAIQKPLCSLPAGSGNALAASLNHYAGYEQVTNEDLLTNCTLLLCRRLLSPMNLLSLHTASGLRLFSVLSLAWGFIADVDLESEKYRRLGEMRFTLGTFLRLAALRTYRGRLAYLPVGRVGSKTPADPVVVQQGPVDAHLVPLEEPVPSHWTVVPDEDFVLVLALLHSHLGSEMFAAPMGRCAAGVMHLFYVRAGVSRAMLLRLFLAMEKGRHMEYECPYLVYVPVVAFRLEPKDGKGVFAVDGELMVSEAVQGQVHPNYFWMVSGCVEPPPSWKPQQMPPPEEPL
notes: sphingosine kinase 1 (SPHK1), human, full-length cDNA, point mutant at Ser225; source: HEK293T, transfected, in lysate; also purified from the lysate with anti-Flag for the GST pulldown; not shown: Flag, C-terminal, kept

- binding result (PKR^451A-Flag): binds
- binding result (PKR-Flag (wild type)): binds
- binding result (PKR^451D-Flag): binds
B2: GST-SPHK1 (enzyme, human, UniProt Q9NYA1 1-384, looked up)
chain: MDPAGGPRGVLPRPCRVLVLLNPRGGKGKALQLFRSHVQPLLAEAEISFTLMLTERRNHARELVRSEELGRWDALVVMSGDGLMHEVVNGLMERPDWETAIQKPLCSLPAGSGNALAASLNHYAGYEQVTNEDLLTNCTLLLCRRLLSPMNLLSLHTASGLRLFSVLSLAWGFIADVDLESEKYRRLGEMRFTLGTFLRLAALRTYRGRLAYLPVGRVGSKTPASPVVVQQGPVDAHLVPLEEPVPSHWTVVPDEDFVLVLALLHSHLGSEMFAAPMGRCAAGVMHLFYVRAGVSRAMLLRLFLAMEKGRHMEYECPYLVYVPVVAFRLEPKDGKGVFAVDGELMVSEAVQGQVHPNYFWMVSGCVEPPPSWKPQQMPPPEEPL
notes: sphingosine kinase 1 (SPHK1), human, full-length cDNA in pGEX-4T1; pGEX-4T1 normally adds GST at the N-terminus; also called purified SPHK1; source: Rosetta bacterial cells, purified on Glutathione Sepharose beads
